Assay results: the nanobody polyreactivity screen of Harvey et al. (2022)

Experiment: yeast display, Sf9 membrane polyspecificity reagent, FACS + sequencing; frameworks hold sequencing errors
In short: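 Galactose induction of a Saccharomyces cerevisiae BJ5465 synthetic nanobody display library ran 36–48 hours. The cells were then stained for 1 hour at 4 °C with 10% biotinylated, detergent-solubilized Sf9 membrane reagent, pulled down on streptavidin microbeads and FACS-sorted into low and high (top ~1%) gates on expression and reagent-binding fluorescence. Labels for polyreactivity follow the gate of origin.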

Sequence: QVQLVESGGGLVQAGGSLRLSCAASGFTFNSYAMGWYRQAPGKKGSWLAITSDGSTYYADSVKGRFTISRDNAKNTVYLQMNSLKPEDSAVYFCAVRTSWYGAASRYYYWGQGTKVTVSS
- polyreactivity (PSR sort gate): high polyreactivity

Sequence: QVQLVESGGGLVQAGGSLRLSCAASGFTFNYYAMGLYRQAPGKERELVARITSGGSTYYADSVKGRFTISRDNAKNTVYLQMNSLKPEDTAVYYCNVDVSVEVAYWGQGTQVTVSS
- polyreactivity (PSR sort gate): low polyreactivity

Sequence: QVQLVESGGGLVQAGGSLRLSCAASGFTFNYYAMGWYRQAPGKERELVAGITRSGVSTNYADSVKGRFTISRDNAKNTVYLQMNSLKPEDTAVYYCAREEGRRYRGWPYVYAPQHDYWGQGTQVTVSS
- polyreactivity (PSR sort gate): high polyreactivity

Sequence: QVQLVESGGGLVQAGGSLRLSCAASGFTFNYYVMGWYRQAPGKEREMVSAISRGGGSTYYADSVKGRFTISRDNAKNTVYLQMNSLKPEDTEVYYCAARPYSYLFFYWGQGTQVTVSS
- polyreactivity (PSR sort gate): high polyreactivity

Sequence: QVQLVESGGGLVQAGGSLRLSCAASGFTFPAYAMGWYRQAPGKERELVAAISSRGGSTYYADSVKGRFTISRDNAKNTVYLQMNSLKPEDTAVYYCASRRANGYYYWGQGTQVTVSS
- polyreactivity (PSR sort gate): high polyreactivity

Sequence: QVQLVESGGGLVQAGGSLRLSCAASGFTFPGNAMGWYRQAPGKEREFVAAITRSSGSTSYADSVKGRFTISRDNAKNTVYLQMTSLKPEDTAVYRDYWGQGTQVTVSS
- polyreactivity (PSR sort gate): low polyreactivity

Sequence: QVQLVESGGGLVQAGGSLRLSCAASGFTFPGYAMGGYRQAPGKERELVAAISSTDRTTYADSVKGRFTISRDNAKNTVYLQMNSLKPEDTAVYYCNTATRRRPRGYWGQGTQVTVSS
- polyreactivity (PSR sort gate): high polyreactivity

Sequence: QVQLVESGGGLVQAGGSLRLSCAASGFTFPGYAMGWYRQAPGKERELVAAISYSSGSTYYADSVKGRFTISRDNAKNTVYLQMNSLKPEDTAVYYCNRVYRFRGITELDYWGQGTQVTVSS
- polyreactivity (PSR sort gate): high polyreactivity

Sequence: QVQLVESGGGLVQAGGSLRLSCAASGFTFPNYAMGWYRQAPGKERELVAAISRRGGRTYYADSVKGRFTISRDNAKNTVYLQMNSLKPEDTAVYYCATEYRGDGPKYDYWGQGTQVTVSS
- polyreactivity (PSR sort gate): high polyreactivity

Sequence: QVQLVESGGGLVQAGGSLRLSCAASGFTFPNYAMGWYRQAPGKERELVAAITSGGGRTNYADSVKGRFTISRDNAKNTVYLQMNSLKPEDTAVYYCAKTRVRGSEFGYWGQGTQVTVSS
- polyreactivity (PSR sort gate): low polyreactivity

Sequence: QVQLVESGGGLVQAGGSLRLSCAASGFTFPPYAMGWYRQAPGKERELVAAISSAGSTKYADSVKGRFTISRDNAKNTVYLQMNSLKPEDSAVYYCDKKGRTARGRYDYWGQGTQVTVSS
- polyreactivity (PSR sort gate): low polyreactivity

Sequence: QVQLVESGGGLVQAGGSLRLSCAASGFTFPRNAMGWYRQAPGKERELVAAISRGGGGTYYADSVKGRFTISRDNAKNTVYLQMNSLKPEDTAVYYCNARSVVREFNYWGQGTQVTVSS
- polyreactivity (PSR sort gate): high polyreactivity

Sequence: QVQLVESGGGLVQAGGSLRLSCAASGFTFPRYAMGWYRQAPGKERELVAAITSGDRTYYADSVKGRFTISRDNAKNTVYLQMNSLKPEDTAVYYCAKSSPRKSSQKHSFYEYNYWGQGTQVTVSS
- polyreactivity (PSR sort gate): high polyreactivity

Sequence: QVQLVESGGGLVQAGGSLRLSCAASGFTFPSYAMGWYRQAPGKERELGAVISRRGGSTYYADSVKGRFTISRDNAKNTVYLQLNSLKPEDTAVYYCARPRQPGSLYGYWGQGTQVTVSS
- polyreactivity (PSR sort gate): high polyreactivity

Sequence: QVQLVESGGGLVQAGGSLRLSCAASGFTFPTYAMGWYRQAPGKERELVAALSTSGARTYYADSVKGRFTISRDNAKNTVYLQMNSLKPEDTAVYYCAVGSIYTICFRKGYRFDYWGQGTQVTVSS
- polyreactivity (PSR sort gate): high polyreactivity

Sequence: QVQLVESGGGLVQAGGSLRLSCAASGFTFPVYALGWYRQAPGKEREFVAAITKSGGGTYYADSVKGRFTISRDNAKNTVYLQMTSLKPEDTAVYYCAKASRRFLTLGYDYWGQGTQVTVSS
- polyreactivity (PSR sort gate): high polyreactivity

Sequence: QVQLVESGGGLVQAGGSLRLSCAASGFTFPVYAMGWYRQAPGKEREFVAAITYIGGSTDADSVKGRFTISRDNAKNTVYLQMNSLKPEDTAVYYCAADIITEYRADYLVYLEYDYWGQGTQVTVSS
- polyreactivity (PSR sort gate): low polyreactivity

Sequence: QVQLVESGGGLVQAGGSLRLSCAASGFTFPVYVMGWYRQAPGKERELVSAISGGGGTYYADSVKGRFTISRDNAKNTVYLQMNSLKPEDTAVYYCAADYRTYVYVYGFRHFDYWGQGTQVTVSS
- polyreactivity (PSR sort gate): low polyreactivity

Sequence: QVQLVESGGGLVQAGGSLRLSCAASGFTFPYYAMGWSRQAPGKERELVAAISFSGGSPYYADSVKGRFTISRDNAKNTVYLQMNSLKPEDTAVYYCAATTKYNGRRSYFKFDYWGQGTQVTVST
- polyreactivity (PSR sort gate): high polyreactivity

Sequence: QVQLVESGGGLVQAGGSLRLSCAASGFTFPYYAMGWYRQAPGKERELVAAISKSGGSTYYADSVKGRFTISRDYAKNTVYLQMNSLKPEDTAVYYCAADWYWWSYSDRHDYWGQGIQVTVSS
- polyreactivity (PSR sort gate): high polyreactivity

Sequence: QVQLVESGGGLVQAGGSLRLSCAASGFTFPYYAMGWYRQAPGKERELVAAISYSGSTTYYADSVKGRFTISRDNAKNTVYLQMNSLKPEDTAVYYCAKAGYYYFQQWQVDYWGQGTQVTVSS
- polyreactivity (PSR sort gate): high polyreactivity

Sequence: QVQLVESGGGLVQAGGSLRLSCAASGFTFPYYAMGWYRQAPGKERELVAVISRSGGSTYYADSVKGRFTISRDNAKNTVYLQMNSLKPEDTAVYYCAKRYSLTGGKRTGYYWGQGTQVTVSS
- polyreactivity (PSR sort gate): high polyreactivity

Sequence: QVQLVESGGGLVQAGGSLRLSCAASGFTFPYYSMGWYRQAPGKERELVAAINRSGGTKYADSVKGRFTISRDNAKNTVYVQMNSLKPEDTAVYDCAADSFYSRSRYDYWGQGSQVTVSS
- polyreactivity (PSR sort gate): high polyreactivity

Sequence: QVQLVESGGGLVQAGGSLRLSCAASGFTFQDYAMGWYRQAPGKERELVASISNGGSTYYADSVKGRFTISRDNAKNTVYLQMNSLKPEDTAVYYCAKPYDPGPYHSSYRATDDYWGQGTQVTVSS
- polyreactivity (PSR sort gate): low polyreactivity

Sequence: QVQLVESGGGLVQAGGSLRLSCAASGFTFQGYVMGWYRQAPGKERELVARITNDGSTTYADSVKGRFTISRDNAKNTVYLQMNSLKPEDTAVYYCDRPYRFWRYYGMYYWGQGTQVTVSS
- polyreactivity (PSR sort gate): high polyreactivity

Sequence: QVQLVESGGGLVQAGGSLRLSCAASGFTFQRYAMGWYRQAPGKERELVAAISVRGTRTYYADSVKGRFTISRDNAMNTVYLQMNSLKPEDTAVYYCNADWERDVQDDYWGQGTQVTVSS
- polyreactivity (PSR sort gate): high polyreactivity

Sequence: QVQLVESGGGLVQAGGSLRLSCAASGFTFQRYAMGWYRQAPGKERELVATINWSGRTYYADSVNGRFTISRDNAKNTVYLQMNSLKPEDTAVYYCAAERIQYGWWVLFDYWGQGTQVTVSS
- polyreactivity (PSR sort gate): high polyreactivity

Sequence: QVQLVESGGGLVQAGGSLRLSCAASGFTFQTYAMGWYRQAPGKERELVATINSSGGGTYYADSVKGRFTNSRDNAKNTVYLQMNSLKPEDTAVYYCAADAVWFVGQAFDISDSTTYGYWGQGTQVTVSS
- polyreactivity (PSR sort gate): low polyreactivity

Sequence: QVQLVESGGGLVQAGGSLRLSCAASGFTFQYNAMGWYRQAPGKERELVAGISRSGANTYYADSVKGRFTISRDTAKNTVYLQMNSLKPEDTAVYYCNNLTSRVGPDEYDYWGQGTQVTVSS
- polyreactivity (PSR sort gate): high polyreactivity

Sequence: QVQLVESGGGLVQAGGSLRLSCAASGFTFQYYAMGWYRQAPGKERELVAAISWSGDSTYYADSVKGRITISRENAKNSVYLQMNSLKPEDTAVYYCAVYYTRGYDYWGQGTQVTVSS
- polyreactivity (PSR sort gate): high polyreactivity

Sequence: QVQLVESGGGLVQAGGSLRLSCAASGFTFQYYSMGWYRQAPGKERELVAAISSSGGSTYYADSVKGRFTISRDNAENTVYLQMNSLKPEDTAVYYCAIRVSTYGFSGYDYWGQGTQVTVSS
- polyreactivity (PSR sort gate): high polyreactivity

Sequence: QVQLVESGGGLVQAGGSLRLSCAASGFTFRANGMGWYRQAPGKERELVATITSGGTTNYADSVKGRFTISRDNAKITVYLQMNSLKPEDTAVYYCAKAFRHSTFFAPYDYWRQGTQVTVSS
- polyreactivity (PSR sort gate): low polyreactivity

Sequence: QVQLVESGGGLVQAGGSLRLSCAASGFTFRAYAMGWYRQAPGKERELVAAITRSGVSTYYADSVKGRFTISRDNAKNTVYLQMNSLKPEDTAVYYCAAVAQRVGRSGTIEGDSWGQGTQVTVSS
- polyreactivity (PSR sort gate): high polyreactivity

Sequence: QVQLVESGGGLVQAGGSLRLSCAASGFTFRFYAMGWYRQAPGKERELVATISSRGGRTYYADSVKGRFTISRDNAKNTVYLQMNSLKPEDTAVYYCNKDLYRYPGYDYWGQGTQVTVSS
- polyreactivity (PSR sort gate): high polyreactivity

Sequence: QVQLVESGGGLVQAGGSLRLSCAASGFTFRGYAMGWYRQAPGKERELVAAITSRGGTTYYADSVKGRFTISRDNAKNTVYLQMNSLKPEDTAVYYCATTGGYTRGIGWYNYWGQGTQVTVSS
- polyreactivity (PSR sort gate): high polyreactivity

Sequence: QVQLVESGGGLVQAGGSLRLSCAASGFTFRINAMGWYRQAPGKERELVAVITGSGTSTYYADSVKGRFTISRDNAKNTVYLQMNSLKPEDTAVYYCAKRGFISQKYYYWGQGTQGTVSS
- polyreactivity (PSR sort gate): high polyreactivity

Sequence: QVQLVESGGGLVQAGGSLRLSCAASGFTFRIYAMGWYRQAPGKERELVAAITSGGRTYYADSVKGRFTISRDNAKNTVYLQMNSLKPEDTAVYYCAALYFTRDRYDYWGQGTQVTVSS
- polyreactivity (PSR sort gate): high polyreactivity

Sequence: QVQLVESGGGLVQAGGSLRLSCAASGFTFRKNDMGWYRQAPGKERELLAAISSGGGRTYYADSVKWRFTISRDNAKNTVYLQMNSLKQEDTAVYYCNADDGYYVGLSSAIYDYCGQGTQVTVSS
- polyreactivity (PSR sort gate): high polyreactivity

Sequence: QVQLVESGGGLVQAGGSLRLSCAASGFTFRLYDMGCYIQAPGKERELVAAISIRGGRTYYADSVKGRFTISRDNAKNTVYLQMNSLKPEDTAVYYCAAYSQYLKRDYWGQGTQVTVSS
- polyreactivity (PSR sort gate): high polyreactivity

Sequence: QVQLVESGGGLVQAGGSLRLSCAASGFTFRNNAMGWYRQAPGKERELVAAISYSGGSTYYADSVKGRFTISRDNAKNTVYLQMNSLKPEDTAVYYCNPRRWSYLEYDYWGQGTQVTVSS
- polyreactivity (PSR sort gate): low polyreactivity

Sequence: QVQLVESGGGLVQAGGSLRLSCAASGFTFRRNVIGWYRQAPGKERELVAAIRGSDGSTYYADSVKGRFTNSRDNAKNTVYLQMNSLKPEDTAVYYCNVVGIGLYRKMGYWGQGTQVTVSS
- polyreactivity (PSR sort gate): high polyreactivity

Sequence: QVQLVESGGGLVQAGGSLRLSCAASGFTFRRYAMGWYRQAPGKERELVAAISLRSGRTNYADSVKGRFTISRDNAKNTVYLQMNSLKPEDTAVYYCAAGLYGKRAGTSYGYDYWGQGTQVTVSS
- polyreactivity (PSR sort gate): high polyreactivity

Sequence: QVQLVESGGGLVQAGGSLRLSCAASGFTFRRYAMGWYRQAPGKERELVAAISRGSSTYYADSVKGRFTISRDNAKNTVYLQMNSLKPEDTAVYYCAADWEQLRGTMDYWGQGTQVTVSS
- polyreactivity (PSR sort gate): high polyreactivity
